Target: African cichlid nackednavirus capsid protein (African cichlid nackednavirus (ACNDV))
Test: cryo-EM structure; capsids assembled in E. coli and purified; TRIS buffer (50 mM TRIS, 50 mM NaCl, 5 mM EDTA, 5 mM DTT), pH 7.5; icosahedral symmetry imposed

Substance: African cichlid nackednavirus capsid protein (natural protein)
- stoichiometry N (protein dimers): 90

Reference: PMC10033635
